# Patent US20240174760A1 (ZHEJIANG NANOMAB TECHNOLOGY CENTER, published 2024)
# Where two headings read alike, the source gives them in different places.
# T1: human BCMA his tag protein (Acrobiosystems, BCA-H522y) (human, UniProt Q02223 1-54)
# T1 construct: Bought protein; also called BCMA/TNFR-His; human recombinant BCMA his tag; not shown: his tag
# T1 sequence (looked up): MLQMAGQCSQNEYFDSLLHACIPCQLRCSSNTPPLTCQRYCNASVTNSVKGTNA
# T2: human BCMA full-length protein on cells (human, UniProt Q02223 1-184)
# T2 construct: whole, on cells; also called CHO-K1/BCMA; BCMA on RPMI8226, Jeko-1, Daudi cells
# T2 sequence (looked up): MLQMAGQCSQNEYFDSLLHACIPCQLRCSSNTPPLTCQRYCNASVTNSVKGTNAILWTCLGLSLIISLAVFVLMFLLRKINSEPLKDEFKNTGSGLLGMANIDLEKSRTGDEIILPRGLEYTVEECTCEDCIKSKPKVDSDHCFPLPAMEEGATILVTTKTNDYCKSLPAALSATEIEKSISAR
# Tests used:
# [1] = biological target: human BCMA his tag protein (Acrobiosystems, BCA-H522y) (human) (UniProt Q02223); assay: comp. ELISA, competitor biotin-APRIL (ligand signal), Ab 4.875 ug/mL
# [2] = biological target: human BCMA his tag protein (Acrobiosystems, BCA-H522y) (human) (UniProt Q02223); assay: comp. ELISA, competitor biotin-APRIL (ligand signal), Ab 78 ug/mL
# [3] = biological target: human BCMA his tag protein (Acrobiosystems, BCA-H522y) (human) (UniProt Q02223); assay: comp. ELISA, competitor biotin-BAFF (ligand signal), Ab 19.5 ug/mL
# [4] = biological target: human BCMA his tag protein (Acrobiosystems, BCA-H522y) (human) (UniProt Q02223); assay: comp. ELISA, competitor biotin-BAFF (ligand signal), Ab 1.218 ug/mL
# [5] = biological target: human BCMA his tag protein (Acrobiosystems, BCA-H522y) (human) (UniProt Q02223); assay: comp. ELISA, competitor biotin-BAFF (ligand signal), Ab 4.875 ug/mL
# [6] = biological target: human BCMA his tag protein (Acrobiosystems, BCA-H522y) (human) (UniProt Q02223); assay: comp. ELISA, competitor biotin-APRIL (ligand signal), Ab 1.218 ug/mL
# [7] = biological target: human BCMA his tag protein (Acrobiosystems, BCA-H522y) (human) (UniProt Q02223); assay: comp. ELISA, competitor biotin-APRIL (ligand signal), Ab 19.5 ug/mL
# [8] = biological target: human BCMA his tag protein (Acrobiosystems, BCA-H522y) (human) (UniProt Q02223); assay: comp. ELISA, competitor biotin-BAFF (ligand signal), Ab 78 ug/mL
# [9] = biological target: T1, human BCMA his tag protein …; assay: comp. ELISA, competitor biotin-APRIL (ligand signal), Ab 1.218 ug/mL
# Description: (§1) Plates (Corning) were coated with 2 μg/mL human BCMA his tag protein (Acrobiosystems, BCA-H522y) overnight at 4° C. After blocking and washing, 50 μL diluted antibodies (78 μg/mL, 19.5 μg/mL, 4.875 μg/mL, 1.218 μg/mL) and 50 μL biotin-labeled 1 μg/mL APRIL (Acrobiosystems, APL-H82F5) or 1.25 μg/mL BAFF (Acrobiosystems, BAF-H82F3) ligand were added to each well, and incubated at 37° C. for 1 hour. After washing 3 times, 100 μL HRP-labeled streptavidin (Biolegend, 405210) diluted 1:2000 was added to each well, and incubated at 37° C. for 30 minutes. After washing, 100 μL TMB substrate (Abeam, ab171524) was added to each well and developed for 5 minutes and the reaction was stopped by 3M HCl. The absorbance value at […] was read using a microplate reader (Tecan, SPARK).
# [10] = biological target: T1, human BCMA his tag protein …; assay: comp. ELISA, competitor biotin-BAFF (ligand signal), Ab 78 ug/mL
# Description: as §1
# [11] = biological target: T2, human BCMA full-length protein on cells; assay: flow cytometry on RPMI8226 cells, anti-human IgG PE [A&B) A]
# Description: The EC50 of the antibody was calculated by fitting the curve.
# [12] = biological target: T2, human BCMA full-length protein on cells; assay: flow cytometry competition on CHO-K1/BCMA cells; antibody titrated against biotin-APRIL, PE streptavidin readout
# Description: (§2) In a 96-well non-adsorption deep-well plate, the purified antibody and the control antibody were diluted to 1000 nM with DPBS, and then serially diluted to 8 concentration with 3-fold dilution. Biotin-APRIL was diluted to 4 μg/mL with DPBS. 50 μL the antibody diluted in the previous step or DPBS (Blank, Blank-PE tube), respectively, was added to the wells of a non-adsorption 96-well plate having 5×10⁵ CHO-K1/BCMA cells that overexpressed human BCMA, and then the 50 μL diluted APRIL in the previous step was added and mixed, incubated at 4° C. for 40 min. After washing once with pre-cooled DPBS, 150 μL PE Streptavidin (Biolegend, 405210) diluted with DPBS at 1:500 was added to each well, the cells were resuspended, and incubated at 4° C. for 30 min. After 30 minutes, centrifuged at 220 g for 5 minutes at 4° C., the supernatant was discarded, 200 μL pre-cooled DPBS washing solution was added to each well, the cells were resuspended by gently pipetting with a multichannel pipette, centrifuged at 220 g for 5 minutes, the supernatant was discarded, and the washing step was repeated one time. After 2 times of washing, the cells were resuspended in DPBS and detected by a flow analyzer (Beckman, Cytoflex). […]
# [13] = biological target: T1, human BCMA his tag protein …; assay: comp. ELISA, competitor biotin-BAFF (ligand signal), Ab 1.218 ug/mL
# Description: as §1
# [14] = biological target: T1, human BCMA his tag protein …; assay: comp. ELISA, competitor biotin-BAFF (ligand signal), Ab 4.875 ug/mL
# Description: as §1
# [15] = biological target: T2, human BCMA full-length protein on cells; assay: flow cytometry competition on CHO-K1/BCMA cells; antibody titrated against biotin-APRIL, PE streptavidin readout; remark: listed apart in the source
# Description: as §2
# [16] = biological target: T1, human BCMA his tag protein …; assay: comp. ELISA, competitor biotin-APRIL (ligand signal), Ab 4.875 ug/mL
# Description: as §1
# [17] = biological target: T1, human BCMA his tag protein …; assay: comp. ELISA, competitor biotin-APRIL (ligand signal), Ab 19.5 ug/mL
# Description: as §1
# [18] = biological target: T1, human BCMA his tag protein …; assay: comp. ELISA, competitor biotin-BAFF (ligand signal), Ab 19.5 ug/mL
# Description: as §1
# [19] = biological target: T1, human BCMA his tag protein …; assay: comp. ELISA, competitor biotin-APRIL (ligand signal), Ab 78 ug/mL
# Description: as §1
Molecule,OD450 [1] [OD450],OD450 [2] [OD450],OD450 [3] [OD450],OD450 [4] [OD450],OD450 [5] [OD450],OD450 [6] [OD450],OD450 [7] [OD450],OD450 [8] [OD450],OD450 [9] [OD450],OD450 [10] [OD450],EC50 [11] [nM],IC50 [12] [nM],OD450 [13] [OD450],OD450 [14] [OD450],IC50 [15] [nM],OD450 [16] [OD450],OD450 [17] [OD450],OD450 [18] [OD450],OD450 [19] [OD450]
Isotype-2 (antibody),3.07,3.04,3.28,3.38,3.29,2.89,2.99,3.24,,,,,,,,,,,
"BMK1 (scFv, also called positive control antibody; BMK control antibody) scFv: DIVLTQSPASLAVSLGKRATINCRASESVSVIGAHLIHWYQQKPGQPPKLLIYLASNLETGVPARFSGSGSGTDFTLTISSLQAEDAAIYYCLQSRIFPRTFGGGTKLEIKGSTSGSGKPGSGEGSTKGQVQLVQSGSELKKPGASVKVSCKASGYTFTDYSINWVRQAPGQGLEWMGWINTETREPAYAYDFRGRFVFSLDTSVSTAYLQISSLKAEDTAVYYCARDYSYAMDYWGQGTLVTVSS",,,,,,,,,3.1,0.03,5.7,89.6,3.39,3.32,81.8,2.9,0.31,0.31,0.05
